Changes are numbered by the printed parent chain.
Key:
[1] = molecular target: T1, human 4-1BB on CHO-K1 cells (human, UniProt Q07011 24-255); assay: FACS
Target sequence in this assay (Q07011 24-255): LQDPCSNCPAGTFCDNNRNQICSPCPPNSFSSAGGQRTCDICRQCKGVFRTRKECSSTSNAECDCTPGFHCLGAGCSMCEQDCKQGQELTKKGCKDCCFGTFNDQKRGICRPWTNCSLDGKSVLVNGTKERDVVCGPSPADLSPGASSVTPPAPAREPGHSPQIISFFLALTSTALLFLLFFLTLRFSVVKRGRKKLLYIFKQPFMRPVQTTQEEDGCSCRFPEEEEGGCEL

[2] = molecular target: T2, cynomolgus monkey 4-1BB on CHO-K1 cells (cynomolgus monkey); assay: FACS; FIG. 12F
T2 chain: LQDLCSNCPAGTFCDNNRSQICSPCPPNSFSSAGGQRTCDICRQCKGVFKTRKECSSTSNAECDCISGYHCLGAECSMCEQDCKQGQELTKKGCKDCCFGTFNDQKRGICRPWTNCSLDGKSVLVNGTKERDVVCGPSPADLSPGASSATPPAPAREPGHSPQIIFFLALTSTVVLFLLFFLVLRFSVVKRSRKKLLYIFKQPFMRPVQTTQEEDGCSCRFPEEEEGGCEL

[3] = molecular target: T1, human 4-1BB on CHO-K1 cells; assay: FACS blocking of 4-1BBL; FIG. 14F
[4] = molecular target: T2, cynomolgus monkey 4-1BB on CHO-K1 cells; assay: FACS; FIG. 12I
[5] = molecular target: T1, human 4-1BB on CHO-K1 cells; assay: FACS; FIG. 11J
[6] = molecular target: T1, human 4-1BB on CHO-K1 cells; assay: FACS blocking of 4-1BBL; FIG. 14H
[7] = molecular target: T2, cynomolgus monkey 4-1BB on CHO-K1 cells; assay: FACS
[8] = molecular target: human PD-L1 on CHO-K1 cells (human, UniProt Q9NZQ7 19-290); assay: FACS
Sequence of human PD-L1 on CHO-K1 cells (Q9NZQ7 19-290): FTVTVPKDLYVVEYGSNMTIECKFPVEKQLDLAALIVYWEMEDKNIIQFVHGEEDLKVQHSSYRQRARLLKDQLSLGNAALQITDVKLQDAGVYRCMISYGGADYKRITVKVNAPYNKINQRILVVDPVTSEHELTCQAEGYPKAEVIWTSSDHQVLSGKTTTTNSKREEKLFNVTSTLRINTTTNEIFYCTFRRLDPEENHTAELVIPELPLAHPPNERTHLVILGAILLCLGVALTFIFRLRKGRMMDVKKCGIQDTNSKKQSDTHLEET

[9] = molecular target: T2, cynomolgus monkey 4-1BB on CHO-K1 cells; assay: FACS; FIG. 12G
[10] = molecular target: T1, human 4-1BB on CHO-K1 cells; assay: FACS; FIG. 11H
[11] = molecular target: T2, cynomolgus monkey 4-1BB on CHO-K1 cells; assay: FACS
[12] = molecular target: T1, human 4-1BB on CHO-K1 cells; assay: FACS; remark: listed apart in the source
[13] = molecular target: T2, cynomolgus monkey 4-1BB on CHO-K1 cells; assay: FACS; FIG. 12H
[14] = molecular target: T1, human 4-1BB on CHO-K1 cells; assay: FACS; FIG. 11I
[15] = molecular target: T1, human 4-1BB on CHO-K1 cells; assay: FACS blocking of 4-1BBL; FIG. 14G
[16] = molecular target: T2, cynomolgus monkey 4-1BB on CHO-K1 cells; assay: FACS; FIG. 12K
[17] = molecular target: T1, human 4-1BB on CHO-K1 cells; assay: FACS; FIG. 11L
Target sequence in this assay (Q07011 24-255): as the sequence (Q07011 24-255) above

[18] = molecular target: T1, human 4-1BB on CHO-K1 cells; assay: FACS blocking of 4-1BBL
Target sequence in this assay (Q07011 24-255): as above

[19] = molecular target: T1, human 4-1BB on CHO-K1 cells; assay: FACS blocking of 4-1BBL binding

B1: PR001840 (antibody, V domains shown)
VH: EVQLVESGGGLVQPGGSLRLSCAASGFTFSSYWMHWVRQAPGKGLVWVSRINSDGSSTSYADSVQGRFTISRDNAKNTLYLQMNSLRAEDTAVYYCVRKGSSSYYHYSIEDDWGQGTLVTVSS
[1]
  EC50: 0.37 nM
[2]
  EC50: 1.25 nM
[3]
  IC50: 2.58 nM

B2: PR007291 (antibody, V domains shown)
VH: EVQLVESGGGLVKPGGSLRLSCVTSGFTFSDYYMNWIRQAPGKGQEWVSYISGNGSTIYYADSVKGRFTISRDNAKNSLYLQMNSLRAEDTAVYYCARVRPGGSGNYWDWFDPWGQGTPVTVSS
[4]
  EC50: 1.95 nM
[5]
  EC50: 2.47 nM
[6]
  IC50: 3.29 nM

B3: PR004270 (bispecific antibody)
chain 1: EVQLVESGGGLVQPGGSLRLSCAASGFTFSSYWMSWVRQAPGKGLEWVANIKQEGSEKYYVDSVKGRFTISRDNAKNSLYLQMNSLRAEDTAVYYCARDRAVAGAFDIWGQGTMVTVSSASTKGPSVFPLAPSSKSTSGGTAALGCLVKDYFPEPVTVSWNSGALTSGVHTFPAVLQSSGLYSLSSVVTVPSSSLGTQTYICNVNHKPSNTKVDKKVEPKSC
chain 2: not shown
[7]
  EC50: 1.55 nM
[8]
  EC50: 0.963 nM

B4: PR004469 (antibody, V domains shown)
VH: EVQLLESGGGLVQPGGSLRLSCAASGFTFSNYAMSWFRQPPETGLKWVSSIDASGGDTYYADSVKGRFTISRDNSKNTLYLQMNSLRAEDTAVYYCAKEGSHGTDDSHYDVDVWGQGTTVTVSS
[9]
  EC50: 0.568 nM
[10]
  EC50: 1.29 nM

B5: PR001838 (antibody, V domains shown)
VH: B4 VH with A53G
[1]
  EC50: 0.248 nM
[9]
  EC50: 0.329 nM
[2]
  EC50: 1.09 nM
[10]
  EC50: 0.851 nM
[3]
  IC50: 1.61 nM

B6: PR003549 (bispecific antibody)
light: DIQMTQSPSTLSASVGDRVTVTCRASQSIYIWLAWYQQKPGKAPNLLIYKASSLETGVPSRFSGSGSGTEFTLTISSLQPDDFATYYCQQYYGSSRTFGQGTKVEIKRTVAAPSVFIFPPSDEQLKSGTASVVCLLNNFYPREAKVQWKVDNALQSGNSQESVTEQDSKDSTYSLSSTLTLSKADYEKHKVYACEVTHQGLSSPVTKSFNRGEC
heavy: EVQLVESGGGLVQPGGSLRLSCAASGFTFSSYWMSWVRQAPGKGLEWVANIKQEGSEKYYVDSVKGRFTISRDNAKNSLYLQMNSLRAEDTAVYYCARDRAVAGAFDIWGQGTMVTVSSASTKGPSVFPLAPSSKSTSGGTAALGCLVKDYFPEPVTVSWNSGALTSGVHTFPAVLQSSGLYSLSSVVTVPSSSLGTQTYICNVNHKPSNTKVDKKVEPKSCDKTHTCPPCPAPEAAGGPSVFLFPPKPKDTLMISRTPEVTCVVVDVSHEDPEVKFNWYVDGVEVHNAKTKPREEQYNSTYRVVSVLTVLHQDWLNGKEYKCKVSNKALGAPIEKTISKAKGQPREPQVYTLPPSREEMTKNQVSLTCLVKGFYPSDIAVEWESNGQPENNYKTTPPVLDSDGSFFLYSKLTVDKSRWQQGNVFSCSVMHEALHNHYTQKSLSLSPGEPKSSDKTHTPPPPPRTEVQLLESGGGLVQLGGSLRLSCAASGFTFSRYAMTWVRQAPEKGLEWVSSISGSGDDTYYGDSVKGRFTISRDNSQNTVYLQMNSLRAEDTAVYFCAKEKAGTTGDYYYNVDVWGQGTTVTVSS
[11]
  EC50: 1.86 nM
[12]
  EC50: 1.9 nM
[8]
  EC50: 1.56 nM

B7: PR003550 (bispecific antibody)
light: B6 light
heavy: EVQLVESGGGLVQPGGSLRLSCAASGFTFSSYWMSWVRQAPGKGLEWVANIKQEGSEKYYVDSVKGRFTISRDNAKNSLYLQMNSLRAEDTAVYYCARDRAVAGAFDIWGQGTMVTVSSASTKGPSVFPLAPSSKSTSGGTAALGCLVKDYFPEPVTVSWNSGALTSGVHTFPAVLQSSGLYSLSSVVTVPSSSLGTQTYICNVNHKPSNTKVDKKVEPKSCDKTHTCPPCPAPEAAGGPSVFLFPPKPKDTLMISRTPEVTCVVVDVSHEDPEVKFNWYVDGVEVHNAKTKPREEQYNSTYRVVSVLTVLHQDWLNGKEYKCKVSNKALGAPIEKTISKAKGQPREPQVYTLPPSREEMTKNQVSLTCLVKGFYPSDIAVEWESNGQPENNYKTTPPVLDSDGSFFLYSKLTVDKSRWQQGNVFSCSVMHEALHNHYTQKSLSLSPGEPKSSDKTHTPPPPPRTEVQLVESGGGVVQPGGSLRLSCAASGFTFSNYAMTWVRQAPEKGLEWVSSISGSGVSTYYADSVKGRFTISRDNSKNTLYLQMTRLTAEDTAVYFCAKEGSSETDDHYYNVDVWGQGTTVTVSS
[11]
  EC50: 1.32 nM
[8]
  EC50: 1.11 nM

B8: PR004268 (bispecific antibody)
light: B6 light
heavy: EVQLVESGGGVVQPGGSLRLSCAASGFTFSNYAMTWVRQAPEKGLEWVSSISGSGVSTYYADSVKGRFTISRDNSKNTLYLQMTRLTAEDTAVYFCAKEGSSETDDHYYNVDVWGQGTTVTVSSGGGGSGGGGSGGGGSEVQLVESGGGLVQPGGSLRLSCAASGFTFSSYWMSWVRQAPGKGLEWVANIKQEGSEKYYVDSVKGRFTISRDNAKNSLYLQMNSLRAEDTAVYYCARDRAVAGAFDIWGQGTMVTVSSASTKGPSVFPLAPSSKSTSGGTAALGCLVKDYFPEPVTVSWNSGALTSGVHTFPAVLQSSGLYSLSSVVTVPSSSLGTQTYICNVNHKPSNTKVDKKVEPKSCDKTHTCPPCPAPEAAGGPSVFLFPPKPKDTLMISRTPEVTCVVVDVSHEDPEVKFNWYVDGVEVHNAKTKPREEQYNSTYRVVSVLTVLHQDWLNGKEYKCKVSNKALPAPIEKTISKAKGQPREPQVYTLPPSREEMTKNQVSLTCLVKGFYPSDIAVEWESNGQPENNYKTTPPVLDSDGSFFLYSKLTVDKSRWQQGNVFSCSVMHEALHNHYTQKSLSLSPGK
[7]
  EC50: 0.621 nM
[8]
  EC50: 1.2 nM

B9: PR007288 (antibody, V domains shown)
VH: EVQLVESGGGLVKPGGSLRLSCAASGFTFSDYYMSWFRQAPGKGLEWVSYISGSGSIIDYADSVKGRFTISRDNAKNSLYLQMNSLRAEDTAVYYCSREREAVAGTLDFDYWGQGTLVTVSS
[13]
  EC50: 0.903 nM
[14]
  EC50: 1.21 nM
[15]
  IC50: 1.63 nM

B10: PR007289 (antibody, V domains shown)
VH: B9 VH with G53S, I57T, I58Q, S97A, A102P, Y111N, L117P
[4]
  EC50: 4.11 nM
[5]
  EC50: 2.49 nM
[6]
  IC50: 11 nM

B11: PR007296 (antibody, V domains shown)
VH: B9 VH with A23V, S56T, I57T, S97A, Y111N, L117P
[16]
  EC50: 3.28 nM
[17]
  EC50: 3.81 nM
[18]
  IC50: 4.19 nM

B12: PR007287 (antibody, V domains shown)
VH: B9 VH with V5E, G53S, I58T, S63A, T69N, S97A, Y111N
[13]
  EC50: 1.17 nM
[14]
  EC50: 1.55 nM
[15]
  IC50: 2.55 nM

B13: PR007290 (antibody, V domains shown)
VH: B9 VH with L11V, K13Q, G16R, G53S, S56T, I57T, S97A, A102E, L117P
[4]
  EC50: 2.5 nM
[5]
  EC50: 2.02 nM
[6]
  IC50: 5.11 nM

B14: PR001837 (antibody, V domains shown)
VH: EVQLLESGGGLVQPGGSLRLSCEASGFTFSSYAMSWVRQAPEKGLEWVSSISGSGGSTFYADSVKGRFTISRDNSKNTLYLQMNSLRAEDTAVYYCAKEGTTETDDYHYNMDVWGQGTTVTVSS
[1]
  EC50: 0.386 nM
[2]
  EC50: 1.63 nM
[3]
  IC50: 1.96 nM

B15: PR007286 (antibody, V domains shown)
VH: EVQLVESGGGLVKPGGSLRLSCAASGFTFSDYYMSWIRQAPGKGLEWVSYISSSGSTIYYADSVKGRFTISRDNAKNSLYLQMNSLRAEDTAVYYCARVKPVAGTWDWFDPWGQGTPVTVSS
[13]
  EC50: 4.61 nM
[14]
  EC50: 4.37 nM
[15]
  IC50: 7.54 nM

B16: PR000448 (antibody, V domains shown)
VH: QVQLQQWGAGLLKPSETLSLTCAVYGGSFSGYYWSWIRQPPGKGLEWIGEIQHSGSTDSNPSLKGRVTFSVDTSKNQFSLKLNSVTAADTAVYYCARLTGPFDYWGQGTLVTVSS
VL: EIVMTQSPATLSVSPGERATLSCRASQSISSILAWYQQKPGQAPRLLIYGASTRATGIPARFSGSGSGTEFTLTISSLQSEDFAVYYCQQYYNWPLTFGGGTKVEIKR
[19]
  EC50: 2.05 nM

Source: patent US20230242658A1 (published 2023)
